Results taken from US20260167699A1 (Chugai, published 2026).

T1: FcγRIIa(R) extracellular domain, C-terminal His tag (human, UniProt P12318 34-217)
T1 construct: extracellular domain; Allotype R131; also called 2aR
T1 sequence: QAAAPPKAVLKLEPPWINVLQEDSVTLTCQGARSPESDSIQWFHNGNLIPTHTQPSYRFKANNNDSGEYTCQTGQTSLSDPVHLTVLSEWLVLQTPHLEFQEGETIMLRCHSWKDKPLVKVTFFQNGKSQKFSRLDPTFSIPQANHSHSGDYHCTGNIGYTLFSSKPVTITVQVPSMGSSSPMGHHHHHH

T2: FcγRIIa(H) extracellular domain, C-terminal His tag (human, UniProt P12318 34-217)
T2 construct: extracellular domain; Allotype H131; also called 2aH
T2 sequence: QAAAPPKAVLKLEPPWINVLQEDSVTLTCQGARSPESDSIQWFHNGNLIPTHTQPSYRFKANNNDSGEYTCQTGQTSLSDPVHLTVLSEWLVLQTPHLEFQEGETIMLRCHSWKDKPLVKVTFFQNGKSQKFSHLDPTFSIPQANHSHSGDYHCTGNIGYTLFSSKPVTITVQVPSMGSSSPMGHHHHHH

T3: FcγRIIb extracellular domain, C-terminal His tag (human, UniProt P31994 43-217)
T3 construct: extracellular domain; also called 2b
T3 sequence: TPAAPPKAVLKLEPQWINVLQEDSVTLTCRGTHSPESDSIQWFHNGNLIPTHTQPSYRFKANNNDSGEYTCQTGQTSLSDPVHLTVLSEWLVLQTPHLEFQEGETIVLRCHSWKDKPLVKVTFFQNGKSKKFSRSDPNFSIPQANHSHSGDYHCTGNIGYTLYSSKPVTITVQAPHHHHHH


What was measured:
Assay in all cases: SPR (Biacore); binding relative to GpH7-A5/GpH7-B3/GpL16-k0 x100;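 further: antibodies captured on a chip surface, soluble FcγR flowed over in HBS-EP+ running buffer at 25 °C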
[1] = molecular target: T4, FcγRIa extracellular domain, C-terminal His tag (human, UniProt P12314 16-292)
T4 construct: extracellular domain; also called 1a
Method: (§1) The antibody of interest was analyzed for its interaction with FcγR using a BiaCore™ T100, BiaCore™ A100, or BiaCore™ 4000 surface plasmon resonance system (GE Healthcare Japan Corp.). The running buffer used was HBS-EP+ (GE Healthcare Japan Corp.). The assay temperature was set to 25° C. The sensor chips used were: a chip prepared by immobilizing antigenic peptides onto Series S Sensor Chip CM5 (GE Healthcare Japan Corp.) by the amine coupling method; a chip prepared by immobilizing antigenic peptides biotinylated in advance onto Series S Sensor Chip SA (certified) (GE Healthcare Japan Corp.) through their interaction; a chip prepared by immobilizing protein L (ACTIGEN, BioVision, Inc.) onto Series S Sensor Chip CM5 (GE Healthcare Japan Corp.); and a chip prepared by immobilizing protein A/G (Thermo Fisher Scientific K.K.) onto Series S Sensor Chip CM5 (GE Healthcare Japan Corp.). The antibody of interest was captured onto any of these chips and allowed to interact with FcγR diluted with a running buffer. The antibody captured on the chip was washed off through the reaction of 10 mM glycine-HCl (pH 1.5) to regenerate the chip, which was repetitively used.

[2] = molecular target: T1, FcγRIIa(R) extracellular domain, …
Method: as §1

[3] = molecular target: T2, FcγRIIa(H) extracellular domain, …
Method: as §1

[4] = molecular target: T3, FcγRIIb extracellular domain, …
Method: as §1

[5] = molecular target: T5, FcγRIIIa extracellular domain, C-terminal His tag (human, UniProt P08637 17-208)
T5 construct: extracellular domain; also called 3a
T5 sequence (P08637 other isoform, or with tags, fused parts or gaps): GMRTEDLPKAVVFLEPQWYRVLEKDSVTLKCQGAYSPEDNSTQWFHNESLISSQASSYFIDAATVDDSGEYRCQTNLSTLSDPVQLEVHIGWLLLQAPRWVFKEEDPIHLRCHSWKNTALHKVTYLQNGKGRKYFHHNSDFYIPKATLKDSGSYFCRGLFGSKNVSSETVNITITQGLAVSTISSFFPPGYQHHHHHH
Method: as §1

T4 sequence (P12314 other isoform, or with tags, fused parts or gaps): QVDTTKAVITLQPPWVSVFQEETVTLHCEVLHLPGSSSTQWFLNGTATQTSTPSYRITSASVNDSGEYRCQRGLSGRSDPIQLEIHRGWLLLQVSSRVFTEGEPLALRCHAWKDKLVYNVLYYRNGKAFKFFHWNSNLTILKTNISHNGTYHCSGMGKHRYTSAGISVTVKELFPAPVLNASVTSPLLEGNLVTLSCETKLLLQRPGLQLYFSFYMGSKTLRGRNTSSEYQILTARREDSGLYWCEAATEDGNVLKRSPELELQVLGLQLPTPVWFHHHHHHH

He/Con 1a [1] [%]	He/Con 2aR [2] [%]	He/Con 2aH [3] [%]	He/Con 2b [4] [%]	He/Con 3a [5] [%]	Binder
105	108	114	116	92.5	GpH7-A5/GpH7-B3 variant I332_06M/GpL16-k0 (antibody, human IgG1, kappa, He Ab: anti-glypican 3 IgG1 heterodimer, only the GpH7-B3 chain mutated; position in EU numbering; also called He Ab) heavy 1: not shown heavy 2: not shown light: DIVMTQSPLSLPVTPGEPASISCQASESLVHSNRNTYLHWYLQKPGQSPQLLIYKVSNRFSGVPDRFSGSGSGTDFTLKISRVEAEDVGVYYCSQNTHVPPTFGQGTKVEIERTVAAPSVFIFPPSDEQLKSGTASVVCLLNNFYPREAKVQWKVDNALQSGNSQESVTEQDSKDSTYSLSSTLTLSKADYEKHKVYACEVTHQGLSSPVTKSFNRGEC
104	104	119	118	110	GpH7-A5/GpH7-B3 variant I332_14T/GpL16-k0 (antibody, human IgG1, kappa, He Ab: anti-glypican 3 IgG1 heterodimer, only the GpH7-B3 chain mutated; position in EU numbering; also called He Ab) heavy 1: not shown heavy 2: not shown light: DIVMTQSPLSLPVTPGEPASISCQASESLVHSNRNTYLHWYLQKPGQSPQLLIYKVSNRFSGVPDRFSGSGSGTDFTLKISRVEAEDVGVYYCSQNTHVPPTFGQGTKVEIERTVAAPSVFIFPPSDEQLKSGTASVVCLLNNFYPREAKVQWKVDNALQSGNSQESVTEQDSKDSTYSLSSTLTLSKADYEKHKVYACEVTHQGLSSPVTKSFNRGEC
106	141	104	223	153	GpH7-A5/GpH7-B3 variant K326_07I/GpL16-k0 (antibody, human IgG1, kappa, He Ab: anti-glypican 3 IgG1 heterodimer, only the GpH7-B3 chain mutated; position in EU numbering; also called He Ab) heavy 1: not shown heavy 2: not shown light: DIVMTQSPLSLPVTPGEPASISCQASESLVHSNRNTYLHWYLQKPGQSPQLLIYKVSNRFSGVPDRFSGSGSGTDFTLKISRVEAEDVGVYYCSQNTHVPPTFGQGTKVEIERTVAAPSVFIFPPSDEQLKSGTASVVCLLNNFYPREAKVQWKVDNALQSGNSQESVTEQDSKDSTYSLSSTLTLSKADYEKHKVYACEVTHQGLSSPVTKSFNRGEC
100	97.6	113	103	89	GpH7-A5/GpH7-B3 variant I332_16H/GpL16-k0 (antibody, human IgG1, kappa, He Ab: anti-glypican 3 IgG1 heterodimer, only the GpH7-B3 chain mutated; position in EU numbering; also called He Ab) heavy 1: not shown heavy 2: not shown light: DIVMTQSPLSLPVTPGEPASISCQASESLVHSNRNTYLHWYLQKPGQSPQLLIYKVSNRFSGVPDRFSGSGSGTDFTLKISRVEAEDVGVYYCSQNTHVPPTFGQGTKVEIERTVAAPSVFIFPPSDEQLKSGTASVVCLLNNFYPREAKVQWKVDNALQSGNSQESVTEQDSKDSTYSLSSTLTLSKADYEKHKVYACEVTHQGLSSPVTKSFNRGEC
103	95.1	112	104	101	GpH7-A5/GpH7-B3 variant I332_19Q/GpL16-k0 (antibody, human IgG1, kappa, He Ab: anti-glypican 3 IgG1 heterodimer, only the GpH7-B3 chain mutated; position in EU numbering; also called He Ab) heavy 1: not shown heavy 2: not shown light: DIVMTQSPLSLPVTPGEPASISCQASESLVHSNRNTYLHWYLQKPGQSPQLLIYKVSNRFSGVPDRFSGSGSGTDFTLKISRVEAEDVGVYYCSQNTHVPPTFGQGTKVEIERTVAAPSVFIFPPSDEQLKSGTASVVCLLNNFYPREAKVQWKVDNALQSGNSQESVTEQDSKDSTYSLSSTLTLSKADYEKHKVYACEVTHQGLSSPVTKSFNRGEC
109	113	112	158	213	GpH7-A5/GpH7-B3 variant I332_10E/GpL16-k0 (antibody, human IgG1, kappa, He Ab: anti-glypican 3 IgG1 heterodimer, only the GpH7-B3 chain mutated; position in EU numbering; also called He Ab) heavy 1: not shown heavy 2: not shown light: DIVMTQSPLSLPVTPGEPASISCQASESLVHSNRNTYLHWYLQKPGQSPQLLIYKVSNRFSGVPDRFSGSGSGTDFTLKISRVEAEDVGVYYCSQNTHVPPTFGQGTKVEIERTVAAPSVFIFPPSDEQLKSGTASVVCLLNNFYPREAKVQWKVDNALQSGNSQESVTEQDSKDSTYSLSSTLTLSKADYEKHKVYACEVTHQGLSSPVTKSFNRGEC
107	135	101	196	135	GpH7-A5/GpH7-B3 variant K326_03V/GpL16-k0 (antibody, human IgG1, kappa, He Ab: anti-glypican 3 IgG1 heterodimer, only the GpH7-B3 chain mutated; position in EU numbering; also called He Ab) heavy 1: not shown heavy 2: not shown light: DIVMTQSPLSLPVTPGEPASISCQASESLVHSNRNTYLHWYLQKPGQSPQLLIYKVSNRFSGVPDRFSGSGSGTDFTLKISRVEAEDVGVYYCSQNTHVPPTFGQGTKVEIERTVAAPSVFIFPPSDEQLKSGTASVVCLLNNFYPREAKVQWKVDNALQSGNSQESVTEQDSKDSTYSLSSTLTLSKADYEKHKVYACEVTHQGLSSPVTKSFNRGEC
108	132	108	185	127	GpH7-A5/GpH7-B3 variant K326_06M/GpL16-k0 (antibody, human IgG1, kappa, He Ab: anti-glypican 3 IgG1 heterodimer, only the GpH7-B3 chain mutated; position in EU numbering; also called He Ab) heavy 1: not shown heavy 2: not shown light: DIVMTQSPLSLPVTPGEPASISCQASESLVHSNRNTYLHWYLQKPGQSPQLLIYKVSNRFSGVPDRFSGSGSGTDFTLKISRVEAEDVGVYYCSQNTHVPPTFGQGTKVEIERTVAAPSVFIFPPSDEQLKSGTASVVCLLNNFYPREAKVQWKVDNALQSGNSQESVTEQDSKDSTYSLSSTLTLSKADYEKHKVYACEVTHQGLSSPVTKSFNRGEC
107	129	101	174	114	GpH7-A5/GpH7-B3 variant K326_04F/GpL16-k0 (antibody, human IgG1, kappa, He Ab: anti-glypican 3 IgG1 heterodimer, only the GpH7-B3 chain mutated; position in EU numbering; also called He Ab) heavy 1: not shown heavy 2: not shown light: DIVMTQSPLSLPVTPGEPASISCQASESLVHSNRNTYLHWYLQKPGQSPQLLIYKVSNRFSGVPDRFSGSGSGTDFTLKISRVEAEDVGVYYCSQNTHVPPTFGQGTKVEIERTVAAPSVFIFPPSDEQLKSGTASVVCLLNNFYPREAKVQWKVDNALQSGNSQESVTEQDSKDSTYSLSSTLTLSKADYEKHKVYACEVTHQGLSSPVTKSFNRGEC
106	118	103	141	117	GpH7-A5/GpH7-B3 variant K326_05P/GpL16-k0 (antibody, human IgG1, kappa, He Ab: anti-glypican 3 IgG1 heterodimer, only the GpH7-B3 chain mutated; position in EU numbering; also called He Ab) heavy 1: not shown heavy 2: not shown light: DIVMTQSPLSLPVTPGEPASISCQASESLVHSNRNTYLHWYLQKPGQSPQLLIYKVSNRFSGVPDRFSGSGSGTDFTLKISRVEAEDVGVYYCSQNTHVPPTFGQGTKVEIERTVAAPSVFIFPPSDEQLKSGTASVVCLLNNFYPREAKVQWKVDNALQSGNSQESVTEQDSKDSTYSLSSTLTLSKADYEKHKVYACEVTHQGLSSPVTKSFNRGEC
107	125	110	156	130	GpH7-A5/GpH7-B3 variant K326_02A/GpL16-k0 (antibody, human IgG1, kappa, He Ab: anti-glypican 3 IgG1 heterodimer, only the GpH7-B3 chain mutated; position in EU numbering; also called He Ab) heavy 1: not shown heavy 2: not shown light: DIVMTQSPLSLPVTPGEPASISCQASESLVHSNRNTYLHWYLQKPGQSPQLLIYKVSNRFSGVPDRFSGSGSGTDFTLKISRVEAEDVGVYYCSQNTHVPPTFGQGTKVEIERTVAAPSVFIFPPSDEQLKSGTASVVCLLNNFYPREAKVQWKVDNALQSGNSQESVTEQDSKDSTYSLSSTLTLSKADYEKHKVYACEVTHQGLSSPVTKSFNRGEC
97.3	97.9	113	109	95.6	GpH7-A5/GpH7-B3 variant I332_13S/GpL16-k0 (antibody, human IgG1, kappa, He Ab: anti-glypican 3 IgG1 heterodimer, only the GpH7-B3 chain mutated; position in EU numbering; also called He Ab) heavy 1: not shown heavy 2: not shown light: DIVMTQSPLSLPVTPGEPASISCQASESLVHSNRNTYLHWYLQKPGQSPQLLIYKVSNRFSGVPDRFSGSGSGTDFTLKISRVEAEDVGVYYCSQNTHVPPTFGQGTKVEIERTVAAPSVFIFPPSDEQLKSGTASVVCLLNNFYPREAKVQWKVDNALQSGNSQESVTEQDSKDSTYSLSSTLTLSKADYEKHKVYACEVTHQGLSSPVTKSFNRGEC
106	108	105	119	114	GpH7-A5/GpH7-B3 variant K326_01G/GpL16-k0 (antibody, human IgG1, kappa, He Ab: anti-glypican 3 IgG1 heterodimer, only the GpH7-B3 chain mutated; position in EU numbering; also called He Ab) heavy 1: not shown heavy 2: not shown light: DIVMTQSPLSLPVTPGEPASISCQASESLVHSNRNTYLHWYLQKPGQSPQLLIYKVSNRFSGVPDRFSGSGSGTDFTLKISRVEAEDVGVYYCSQNTHVPPTFGQGTKVEIERTVAAPSVFIFPPSDEQLKSGTASVVCLLNNFYPREAKVQWKVDNALQSGNSQESVTEQDSKDSTYSLSSTLTLSKADYEKHKVYACEVTHQGLSSPVTKSFNRGEC
